Laboratory results published in PMC5460288, “In vitro assembly of the Rous Sarcoma Virus capsid protein into hexamer tubes at physiological temperature” (Scientific Reports, 2017).

Key:
[1] = molecular target: RSV CA carrying the C-terminal spacer peptide (CA-SP, CA + 12) (Rous Sarcoma Virus (strain Prague C)); assay: cryo-EM structure; iterative real space helical reconstruction (SPRING) of one single-layered CA-SP tube, local C6 symmetrization of the turrets, 24 Å (FSC 0.143)
[2] = molecular target: the molecule itself; assay: negative-stain transmission electron microscopy; 600–700 μM protein dialyzed 16–24 h (overnight) at 37 °C against neutral pH (pH 7) buffer with 25–150 mM NaCl; uranyl acetate stain

“RSV CA carrying the C-terminal spacer peptide (CA-SP, CA + 12) (natural protein)” showed a stoichiometry N [1] of 6.

B1: Rous Sarcoma Virus capsid protein (RSV CA), wild type (natural protein)
chain: PVVIKTEGPAWTPLEPKLITRLADTVRTKGLRSPITMAEVEALMSSPLLPHDVTNLMRVILGPAPYALWMDAWGVQLQTVIAAATRDPRHPANGQGRGERTNLNRLKGLADGMVGNPQGQAALLRPGELVAITASALQAFREVARLAEPAGPWADIMQGPSESFVDFANRLIKAVEGSDLPPSARAPVIIDCFRQKSQPDIQQLIRTAPSTLTTPGEIIKYVLDRQKTAPLTDQGIA
notes: capsid protein (CA), the cut product of the Gag polyprotein of Rous sarcoma virus strain Prague C; the naturally occurring species denoted CA (without spacer peptide residues); also called wild type RSV CA; full length RSV CA; not shown: Mycobacterium xenopi GyrA intein (modified), C-terminal, cleaved
With B1 the “stoichiometry N” value [2] was 6.
